In US20240376193A1 (BIOSCEPTRE AUST, published 2024):

T1: E200 peptide
T1 construct: Antigen derived from dysfunctional P2X7 receptor
T1 peptide: GHNYTTRNILPGLNITC


How the values were obtained:
[1] = biological target: T1, E200 peptide; assay: binding kinetics on E200 peptide; method not stated
[2] = biological target: T1, E200 peptide; assay: binding kinetics on E200 peptide; method not stated; column 'affinity (nM) (E200)'

Kd [1] [nM] | Kd [2] [nM] | Binder
127 | 127 | BIL03 VH only (other, Human single-domain VH tested without a light chain; also called BIL03 heavy chain; single domain heavy chain protein BIL03) VH: EVQLLESGGGLVQPGGSLRLSCAASGFTFRNHDMGWVRQAPGKGLEWVSAISGSGGSTYYANSVKGRFTISRDNSKNTLYLQMNSLRAEDTAVYYCAEPKPMDTEFDYRSPGTLVTVSS
82.7 | 83 | BIL03-Germline B1 (other, also called G B1; GB1) VH: EVQLLESGGGLVQPGGSLRLSCAASGFTFRNHDMGWVRQAPGKGLEWVSAISGSGGSTYYANSVKGRFTISRDNSKNTLYLQMNSLRAEDTAVYYCAEPKPMDTEFDYRSPGTLVTVSS VL: DIQMTQSPSSLSASVGDRVTITCRASQSISSYLNWYQQKPGKAPKLLIYAASSLQSGVPSRFSGSGSGTDFTLTISSLQPEDFATYYCQQFDYMPLTFGQGTKVEIKR
24.2 | 24 | BIL03-WT B1 (scFv format) (scFv, V domains shown, Tested in scFv format, so VH and VL sit in one polypeptide) VH: EVQLLESGGGLVQPGGSLRLSCAASGFTFRNHDMGWVRQAPGKGLEWVSAISGSGGSTYYANSVKGRFTISRDNSKNTLYLQMNSLRAEDTAVYYCAEPKPMDTEFDYRSPGTLVTVSS VL: DIQMTQSPSSLSASVGDRVTITCRASQYIYDYLNWYQQKPGKAPKLLIYAASYLQSGVPSRFSGSGSGTDFTLTISSLQPEDFATYYCQQYHHPSTFGQGTKVEIKR
